{"source": "the NTF2 design screens of Basanta et al. (2020)"}
{"test": "protease stability score; higher = more stable; yeast display proteolysis, trypsin and chymotrypsin;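 further: relative to predicted unfolded state with 0 unfolded-like and 1 meaning tenfold more protease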"}
{"sequence": "SERHEILRLITEIWDHLKHTGDEDSLADLFDPHARMIWNGRDIHGWSNLIEAFRKILEFLGIDRIHIENTEMRLQGDKSHNRTDLNVNGKHLDTRVHLDVVDGRIRVTEVRIH", "protease stability score": 1.06}
{"sequence": "SEDEKIAHKVHRLMFESLRTGDEEFLRRMLDPNARFVVNGQDLVGMEFLDHTLREMRVREIRWRSSDVEIQGDKIINHSKVHSRFDQGEKETHVEVHIIIIYTKIDGQWHVKSVIIEYK", "protease stability score": 1.12}
{"sequence": "SEDHHLMEHAIEIMLEMIRTGDEQKYLNLVDPHARLEIDGREHHGWKRMREVFRWLGVDHSDVRHVNVQGEKVEVDTIIEVGDKRIEVIVIVRKINGRWVIEEVRVH", "protease stability score": 0.549}
{"sequence": "SEEEKLLEELAKMFIELWLTGNEEHLMHLADPNVRFRQGDKRSHGRENLKRLLHELHEEIRIHDIRMKDVRFVNGRSIFDGHLIVQVNGVEIRLDAELTIISVNGKIKEIEIRHR", "protease stability score": 1.08}
{"sequence": "SEHHKLLEDFLHLMQEALHTGNEDFIAELADPNVRINWNGKETHGRENLRRMLHEWRERWGIDRIEFHMKSISVQGDKIDLEMQVHINGRHETMHVRITVINGRLKDVRYELR", "protease stability score": 1.66}
{"sequence": "HEKKEAYDYMVEILWKAMHTGDEKTLKHLFDPHTKVTQGDFEIHGMEQFSEHLKHARYRRVRVKFEDSHTQGEKVRMHTRLEFEGEIDGKRDTLEFETHQIVTKIDGRWVFESLEIE", "protease stability score": 0.7}
{"sequence": "DNDQEKIKELARLAEQVMQTGNEKLLRELFDPHARIDIDGKTLHGWKDLLEFTRHELERIDHVVFTVRRVDLQGDKVRVETEVNIDINGKKMTLETTLLIDKFDGRWFLRTIEWE", "protease stability score": 1.8}
{"sequence": "SEDERDIREAFKRWVHNVETGDFESLLKLFDPNVKTTIDGREYHGRDFLVRRLSEMRVHHIEIEHFDIQGDKVNVRGRMDGQIGDKRQDVHFVIHMVKINGRWLLTELTEK", "protease stability score": 2.23}
{"sequence": "KEHEKFVEDFARLLINIWTTGDEDLFNELADPHVRVNFNGVEHHGRENVIRYIERVLREIRIDHVQTRDWTVIDGVMHIEGHIHIHFDGRQRTHDVIFHIIIWNGKMKNVIVSFR", "protease stability score": 1.67}
{"sequence": "SEEEEDIRRLEEMLTKNLLTGNEHKLRRLADPHVQIHINGVDIVGMEWMVQVRREMRVEHVDSRIDDVRVIGDKAEVDGTLIIVGEVDGQRTNETIRIHRVFEKVNGRWILHSETFI", "protease stability score": 1.15}
{"sequence": "DDREKYLTKLMELFIEHWRTGDEEAFLEYFDPHVRIEHIFNGQETRRHGRELFSILLTHEWLFFKNVRIHWKRSEVQGEKTVIHMELHVGDKSLKVRIHLDVVDGRVRSVNIEIE", "protease stability score": 0.548}
{"sequence": "SEEENISKHLADLMFRAIFTGDWQELSRLLDPNARLRVDGVIHHGRETSVEFLERMFRTLGIDHYRVRHVNVQGEKVDIHSEVEYDGRKIDTKIHLVVVNGKVKSVDVRVD", "protease stability score": 1.97}
{"sequence": "DEEERQVLLLAKILIHLYYTGDEESFRKLLDPHVRIIWNGRDFVGRENWYELLHRVLRHWRIHHIDIHDFDVQGNKARFHTQIVVDVNGKHIRSHTEVIYVVVNGRVDEIEVIIR", "protease stability score": 2.37}
{"sequence": "DDYEKDDKHFLNVFLHMLETGDWEKLEKLADPRVRQDVDGVEYHGMEEAVEVWHRLRHKFKGLTLREVTIHDIRTIDGKIDLDVEFHFDFNGREISRRVIIIVDKINGRWELKSMKEK", "protease stability score": 0.074}
{"sequence": "DDREEELRKMTELMLKAEQTGDEDHWMHLADPHVRVIVNGREFIGREEWARHHEEHRRKVKNIRIHVRIRDSEVQGDKLILDTELELRIGDKTIIRDVEINMTIINGRLRSLEIRIK", "protease stability score": 1.17}
{"sequence": "DELTEDLKHAMTIFLHMLITGDEHWIHDLLDPNTRLEFEGREFVGREDAREEWRKISEEIRVHHVEMKDIHVFDGVIIVDGRMDGEVNGRRTHLNVFFVFHKVNGKWLMRQHSLR", "protease stability score": 1.42}
{"sequence": "DDRHEENKEITRRQFELFETGDEEILHHLADPHVRLRIDGQHNHGREELERSLRELRKELGANVLILRRIRVIGDKMEVEGEFDYNGRNFHATFRFNVIDGRLHSMSIEIR", "protease stability score": 0.832}
{"sequence": "SEDEEEHKEMLRILIHDNRTGDEDSFRDMFDPNVRFEQGEWSAHGRDWAEHVMRRADHVKLDLQTMDTQGDKVILHGRLILLQGEKRIDEKVIFIIRKIDGKWILESVHFH", "protease stability score": 1.21}
{"sequence": "DETEEMAEEVLRRFLEINRTGDWKDLHRLFDPNVRIVVNGQELHGMELYLKHEIKTRRKLGAKVEEVRLKHLDSQGEKIISEVEIIFDINGQEIRLDVRVIMNKIDGKWTIRELRIH", "protease stability score": 1.08}
{"sequence": "HEEEELERTILELVLHYLKTGDEHFMKNMADPNARSTIGDKDLHGREWMSEVWKRIKNVRIEIDRVDMINGVVHLHITVEYNGRRTHLTLHAEKVDGRWIIRELRVE", "protease stability score": 1.61}
{"sequence": "TEDQEQLEQHIRELTHNWHTGDFDSLKKLFDPNVKLEIGDKEYHGRELAEKYIRDELRHLRIEHVENREWRLINGVIILHTRLVGNIDGQRVERDTEIYVKKFDGQWIIEIFRVH", "protease stability score": 1.34}
{"sequence": "DEETEISRRALKIFLDTIHTGDPRELKENLDPSVRIIINGVHYHGRESFEHVLERVEKSAGVDRVHVELRDFRIYGDKVEVEVTNHFNGRTEIDHFILRKVNGRWYIHEVEFE", "protease stability score": 2.18}
{"sequence": "DEEDERSKEAMEHFLENEITGDWKRLHELFDPNARMHINGREYHGREEVTNKFWEHNYRMGVKHVEVRDLEVINGRVHLHVEQDVGEFHIELEVVIKKVNGRWLIEETEIHVR", "protease stability score": 0.987}
{"sequence": "SEDEDNMHEFFRIWSRVQETGDEEAMLKLMDPNVRTDINGVELHGREEFEKELHRLIFEWGFDRFVVHIEHEDIFNGRIHVRSRVIYGDKEVHVIIHVYKVNGQWRVEELRFE", "protease stability score": 1.41}
{"sequence": "SEHEEDLERFAREWIHIFKTGDFKMFNKLADPNVRVHINGKDNHGMEQWKHLKDRHEKELGVDRVDIHVDDVRFIGDKIEMDVTVRQGEFSTRWHVELIVVDGRLKHVSFHVR", "protease stability score": 1.16}
{"sequence": "SEDEKVVFQILRLWVDLLLTGDEEEMLHLADPNTRVEIGEFDDHGREAMEFMIRRFDVIEDIKIRDIRTIDGKVQIHGEVHSHFNGRRFTIHVEIIARKIDGRWKLTSMHFI", "protease stability score": 2.08}
{"sequence": "SEAEKRSEIILRLILHSLHTGDEHTLESLFDPNVRILIGDKELVGMEELSKLLRHIRIERVHIHLRDDRQQGDKADMDVELHRHGTFNGVRRDESSRIWIHAEKVDGRWVISEVIVH", "protease stability score": 1.02}
{"sequence": "DEEDHDLELFLQIMTHDMRTGNEDNLTRLLDPHVRLEWNGKEFHGRDVMRFWREELGHDNVEVHMRLKDRELQGDKLIIHGEIIHRYNGREIRLDIHFIAHKVDGKWIARVRNIQ", "protease stability score": 1.64}
{"sequence": "SEEEEISKELARLWLHLFFTGNEEKLTELFDPNARLIVGDKQRHGRERVIKIFHEWLLELGIDYLDIHHIEFQGEKVHMNTKVRQGDFETRTEVNLIIVNGRIKEVRFDLR", "protease stability score": 1.19}
{"sequence": "DEDDKEAEKALRDMVHSWVTGDEQKNQELADPHVRVIIGEFNFVGRDDLDKWLREIRIHNIEIKDIDVFDGKVELKGTLTIRIGDKEVRHEVDFYMVKINGRWHLHRIQVH", "protease stability score": 2.08}
{"sequence": "DEDEKEAEHAAKLFSRHFRTGDEDLLREMIDPNVRIRIGDKELHGWEEFTRLMREWRFDDVHVEHIHVQGDKVIVDSILHVIINGRHIDFRSHIYIEKIDGRWVIRSFEIR", "protease stability score": 0.651}
{"sequence": "SERHEESHERTRLLMHAHETGDFHTLQRLMDPDTRLLIIFNGREIHIHGMESAFKFFNEIRISHVTIHRVDIQGDKVNVDGEQEGQINGQRSRNRIHWDIDVIDGKIKRIIVEIR", "protease stability score": 0.993}
{"sequence": "DEEKKLAHKIARILMDLFLTGNEEVWKELMDPHVKFEIGDFIDHGWEAVKRYYEVLGFDHIQETDLESIVIFENHVILHIRIHGEVNGRQVDTTVTLFIEKINGKWYIRTIRIH", "protease stability score": 2.5}
{"sequence": "DEKQVLELIRDVMKHVQNGNQEEVKKHGKPSVEVILFNERYTGPEALVRLAEFAQKLGAQFEYKETRHEGNKVKTKVEVTFGGTTVRYEVEVEAEGGKVVKWEVRASDEFDERVKKS", "protease stability score": 1.29}
{"sequence": "SEEEKHLRELSEHFIKLFLTGNEEELVNNADPHVQLHIDINGKKYHYHGREEFRKWAEERSEKIKNAKIILDHVEIQGEKLIIDTTWHFDGRNFRSKIKIKVFDGVLKEIHIEIR", "protease stability score": 2.1}
{"sequence": "DEEDEHVKKAAEDFLRWWLTGDESRLLELFDPNMLLIIGDKHIHGRESVVHFFSELRERLGIDHIELEDVHIREVNGRAEFHSHILLHINGQKVKVDVRIHFHKVNGRWLFEHEHVEIR", "protease stability score": 1.32}
